Legend:
[1] = target: PD-1 on PD-1 reporter Jurkat cells (human, UniProt Q15116 25-288); assay: cell-based or functional assay
Insulin = target: T1, Insulin; assay: ELISA, plate coated with insulin 5 ug/mL, test article at 100 nM, anti-human Fc-HRP detection
T1 construct: Plate coat in the polyreactivity ELISA
Procedure: Non-specific DNA and Insulin binding (a measure of polyreactivity), which may be predictive of poor PK, was measured. An immunosorbent plate was coated with dsDNA at a concentration of 1 μg/mL or Insulin at 5 μg/mL in PBS pH 7.4 and incubated overnight at 4° C. Wells were washed with PBS pH 7.4 containing 0.05% Tween-20 (wash buffer) three times, and then blocked with 1% BSA in PBS pH 7.4 (block buffer) for two hours at room temperature. […] The diluted material was added to the DNA/insulin coated plate for 1 hour at room temperature. After three washes with wash buffer, a donkey anti-human FcY HRP conjugated polyclonal antibody, diluted to 1:5000 in assay buffer, was added to the plate for 1 hr at room temperature. After three washes with wash buffer and three washes with wash buffer (with no tween-20), the assay was developed with TMB, and stopped with 1N HCL. OD 450 nm was measured.

human PD-1 = target: T2, human PD-1 (human, UniProt Q15116 25-167); assay: BLI (Octet), test article captured on anti-human Fc biosensors, human PD-1 as analyte, 1:1 global fit
T2 construct: Soluble analyte in the Octet assay
T2 sequence (Q15116 25-167 limits assumed): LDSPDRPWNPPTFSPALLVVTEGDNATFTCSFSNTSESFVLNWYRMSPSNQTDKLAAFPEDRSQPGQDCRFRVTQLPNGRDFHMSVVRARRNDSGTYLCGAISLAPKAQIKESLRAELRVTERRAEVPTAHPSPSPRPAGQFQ
Procedure: Affinity of the PD-1 effector arm to human PD-1 was measured using anti-human Fc biosensors. Said anti-human Fc biosensors were equilibrated in assay buffer (PBS, pH 7.4 with 1% BSA, and 0.05% Tween-20) for 30 minutes before the experiment was set-up. […] A two-fold, seven-point dilution of human PD-1 (starting at 500 nM as the highest concentration) was made. Test articles were captured using anti-human Fc biosensors for 180 s. Biosensors loaded with test articles were equilibrated in assay buffer for 120 s; association was performed for 180 seconds and dissociation was performed for 300 s. Kinetic parameters (kon and kdis) and dissociation constant (KD) were calculated from a 1:1 global fit model using the data analysis software of the Octet96 RED software version 10.

Chain of PD-1 on PD-1 reporter Jurkat cells (Q15116 25-288): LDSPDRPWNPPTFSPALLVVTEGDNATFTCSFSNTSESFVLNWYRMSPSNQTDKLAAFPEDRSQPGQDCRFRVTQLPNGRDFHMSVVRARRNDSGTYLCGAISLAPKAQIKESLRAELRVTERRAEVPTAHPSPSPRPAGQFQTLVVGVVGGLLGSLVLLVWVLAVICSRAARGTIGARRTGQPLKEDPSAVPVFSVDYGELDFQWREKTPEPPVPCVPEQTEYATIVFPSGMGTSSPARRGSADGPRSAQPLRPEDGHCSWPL

SHP-2 recruitment in PD-1 reporter Jurkat cells (test article on anti-human IgG coated plate), EC50 at 2 hours [1] [nM] | SHP-2 recruitment in PD-1 reporter Jurkat cells (test article on anti-human IgG coated plate), EC50 at 24 hours [1] [nM] | Insulin polyreactivity score (Insulin) | Kd (human PD-1) [nM] | Binder
107 | 11.2 | 1.3 | 123 | PD1DSGAB1 (bispecific antibody, Anti-PD-1 agonist human IgG1 with an SD1 anti-desmoglein scFv at the C-terminus of each heavy chain (PD-1 ML-N format)) heavy: QVQLVQSGAEVKKPGASVKVSCKASGYSFTTYYMHWVRQAPGQGLEWMGIINPSGGSTSYAQKFQGRVTMTRDTSTSTVYMELSSLRSEDTAVYYCASGWVYWGQGTLVTVSSASTKGPSVFPLAPSSKSTSGGTAALGCLVKDYFPEPVTVSWNSGALTSGVHTFPAVLQSSGLYSLSSVVTVPSSSLGTQTYICNVNHKPSNTKVDKKVEPKSCDKTHTCPPCPAPEAAGAPSVFLFPPKPKDTLMISRTPEVTCVVVDVSHEDPEVKFNWYVDGVEVHNAKTKPREEQYNSTYRVVSVLTVLHQDWLNGKEYKCKVSNKALPAPIEKTISKAKGQPREPQVYTLPPSREEMTKNQVSLTCLVKGFYPSDIAVEWESNGQPENNYKTTPPVLDSDGSFFLYSKLTVDKSRWQQGNVFSCSVMHEALHNHYTQKSLSLSPGGGGGSGGGGSGGGGSQSVLTQPPSVSGTPGQRVTISCSGSSSHIGSNYVYWYQQLPGTAPKILIYSNDQRPAGVPDRFSASKSGTSASLAISGLRSEDEADYYCAAWDDGQGGVFGGGTKLTVLGGGGSGGGGSGGGGSGGGGSQVQLQESGPGPVKPSGTLSLTCGVSGGSISSNHWWTWVRQPPGKGLEWIGEIYHNGSTFLNPSLKSRVTISVDKSNNQFSLKLTSVTAADTAVYYCARGWHRTGFRGYPSHWYFDLWGRGTLVSVSS light: not shown
– | – | 1.7 | 328 | PD1DSGAB3 (bispecific antibody, human IgG1, kappa, Anti-PD-1 agonist human IgG1 with an SD3 anti-desmoglein scFv at the C-terminus of each heavy chain; copies: 2 + 2) heavy: QVQLVQSGAEVKKPGASVKVSCKASGYSFTTYYMHWVRQAPGQGLEWMGIINPSGGSTSYAQKFQGRVTMTRDTSTSTVYMELSSLRSEDTAVYYCASGWVYWGQGTLVTVSSASTKGPSVFPLAPSSKSTSGGTAALGCLVKDYFPEPVTVSWNSGALTSGVHTFPAVLQSSGLYSLSSVVTVPSSSLGTQTYICNVNHKPSNTKVDKKVEPKSCDKTHTCPPCPAPEAAGAPSVFLFPPKPKDTLMISRTPEVTCVVVDVSHEDPEVKFNWYVDGVEVHNAKTKPREEQYNSTYRVVSVLTVLHQDWLNGKEYKCKVSNKALPAPIEKTISKAKGQPREPQVYTLPPSREEMTKNQVSLTCLVKGFYPSDIAVEWESNGQPENNYKTTPPVLDSDGSFFLYSKLTVDKSRWQQGNVFSCSVMHEALHNHYTQKSLSLSPGGGGGSGGGGSGGGGSELQMTQSPSSLSASVGDRVTITCQASQDIGNYLNWYQQKPGKAPKLLIYDASYLETGVPSRFSGSGSGTDFTFTISSLQPEDIATYYCQQYDNLPFTFGPGTKVDIKGGGGSGGGGSGGGGSGGGGSEVQLVESGGGLVQPGRSLRLSCAASGFTFDDYAMHWVRQAPGKGLEWVSGISWNSGSIDYADSVKGRFTISRDNAKNSLYLQMNSLRVEDTALYYCAKDGSRVFGVGGGFDFWGQGTMVTVSS light: not shown

Source: US20240262905A1 (PANDION OPERATIONS, published 2024)
